Assay [1] concerns the target Rse ligand (Rse-L) in fetal bovine serum, unpurified or Q-Sepharose enriched (bovine) (UniProt P07224). Briefly: Scatchard analysis, 125I-Rse-IgG displaced by unlabeled Rse-IgG on CMK11-5 membranes, 1% FBS.
Assay [2] addresses recombinant human gas6 (human). Briefly: 125I-Rse-IgG and purified gas6, displaced by unlabeled Rse-IgG, barium chloride coprecipitation.
Assay [3] concerns the target Rse ligand (Rse-L) in fetal bovine serum, unpurified or Q-Sepharose enriched (bovine) (UniProt P07224). Briefly: Scatchard analysis, 125I-Rse-IgG displaced by unlabeled Rse-IgG on CMK11-5 membranes, 10% FBS.
The target of assay [4] is Rse.gD (human Rse receptor with a C-terminal HSV-1 glycoprotein D flag) on dp12.CHO cells (human) (UniProt Q06418).
For assay [5], the target named is Rse-IgG fusion protein (extracellular domain of human Rse followed by the Fc portion of human IgG) (human) (UniProt Q06418). Briefly: 125I-Rse-IgG binding assay.
For assay [6] the target is unchanged. In words: 125I-Rse-IgG binding to CMK11-5 membranes.
Assay [7] deals with Rse.gD (human Rse receptor with a C-terminal HSV-1 glycoprotein D flag) on dp12.CHO cells (human) (UniProt Q06418). The source holds these as a separate data set.

Bounds are passed on as bounds.

On to “Rse-IgG fusion protein (extracellular domain of human Rse followed by the Fc portion of human IgG) (from UniProt Q06418) (Fc fusion)”, for which the Kd (usually the equilibrium constant for the complex coming apart) in assay [1] was found to be 0.82 nM; in assay [2], 0.46 nM; in assay [3] it was 2.2 nM.
In the case of “gD.gas6.279-C.IgG (from UniProt P01857-1) (Fc fusion)”, in assay [4], the KIRA assay, EC50 for activation was determined as 0.4 nM.
Consider human protein S (ligand), for which, in assay [5], the fold lower affinity than purified bovine protein S turned out to be 200 fold. Moreover, the EC50 (as a rule, the concentration needed to bring the measured effect to its halfway point) in assay [6] is > 250 nM.
Consider “purified bovine protein S (Rse-L purified from fetal bovine serum) (from UniProt P07224) (ligand)”, for which the EC50 in assay [6] was found to be 1.2 nM.
In assay [7], recombinant human gas6 (ligand) gave a KIRA assay, specific activity (KIRA units/mg P) of 1170.
As for “recombinant human gas6 lacking the gamma-carboxyl modification of glutamic acid (form 2) (ligand)”, in assay [7], the KIRA assay, specific activity (KIRA units/mg P) is 3160.

For the origin of these results see patent publication US5955420.
